For experiment [1], the target named is T1, human CEACAM5 on tumor cells (LOVO, LS174T, KATO3) (human, UniProt P06731 35-685).
T1 construct: whole, on cells; also called LOVO cells; LS174T cells
T1 sequence (looked up): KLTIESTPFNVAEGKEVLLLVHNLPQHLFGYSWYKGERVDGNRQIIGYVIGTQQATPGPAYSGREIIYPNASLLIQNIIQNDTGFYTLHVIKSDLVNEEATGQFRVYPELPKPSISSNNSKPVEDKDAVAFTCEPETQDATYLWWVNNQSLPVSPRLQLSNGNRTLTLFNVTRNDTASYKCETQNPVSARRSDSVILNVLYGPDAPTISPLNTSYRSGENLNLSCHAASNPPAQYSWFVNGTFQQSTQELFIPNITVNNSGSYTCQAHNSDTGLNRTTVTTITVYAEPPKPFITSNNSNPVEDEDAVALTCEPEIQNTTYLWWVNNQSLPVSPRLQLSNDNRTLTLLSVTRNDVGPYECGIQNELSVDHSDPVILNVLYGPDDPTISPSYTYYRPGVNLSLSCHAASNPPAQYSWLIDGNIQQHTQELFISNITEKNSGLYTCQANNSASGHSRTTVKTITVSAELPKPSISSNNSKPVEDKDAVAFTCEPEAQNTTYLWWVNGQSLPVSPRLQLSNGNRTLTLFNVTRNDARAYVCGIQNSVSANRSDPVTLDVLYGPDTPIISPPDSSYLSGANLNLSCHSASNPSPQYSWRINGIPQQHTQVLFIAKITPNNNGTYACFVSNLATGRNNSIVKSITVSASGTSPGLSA
Nature of the experiment: FACS on LOVO tumor cells naturally expressing human CEACAM5. The protocol:
(§1) Flow cytometry (FACS) was used to detect the binding of antibody to LOVO tumor cells naturally expressing human CEACAM5 or cells overexpressing different CEACAM family members. In short, cells were first collected, washed with PBS, counted, and diluted to obtain 2*10⁶/ml cell suspension; 10 μl of an antibody working solution was added to 100 μl of the cell suspension, and incubated at 4° C. for 30 min in the dark; after washing twice with PBS, a corresponding fluorescent-labeled secondary antibody Goat-anti-Human IgG (H+L) (Invitrogen) was added, incubated at 4° C. for 30 min in the dark, after washing twice with PBS, it was suspended in 400 μl of FACS buffer, and the binding profile of the antibody to the cells were detected by FACS.
Furthermore, we used FACS to detect the EC50 of the chimeric antibody UM05-5L binding to LOVO tumor cells that naturally expressed human CEACAM5. […] Based on the above results, the chimeric antibody UM05-5L had excellent binding affinity, specificity and selectivity to CEACAM5.

The target in experiment [2] is T2, CEACAM7 overexpressed on CHO cells (UniProt Q14002 36-242, limits assumed).
T2 construct: whole, on cells; also called CHO-CEACAM7
T2 sequence (looked up): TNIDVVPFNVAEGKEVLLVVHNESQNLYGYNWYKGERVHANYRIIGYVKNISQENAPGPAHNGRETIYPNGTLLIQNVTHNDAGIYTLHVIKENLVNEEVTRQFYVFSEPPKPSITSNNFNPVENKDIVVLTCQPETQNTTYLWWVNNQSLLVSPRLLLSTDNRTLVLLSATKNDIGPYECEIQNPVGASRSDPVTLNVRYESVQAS
Nature of the experiment: FACS on CHO-CEACAM7 cells. The protocol:
as §1
(§2) The binding profile of the supernatants of the chimeric antibody UM05-5L and the control antibody UM05-8 (anti-CEACAM5 antibody, prepared by the hybridoma method in our laboratory) to different cells at a concentration of 3 μg/mL were detected, in which SW620-CEACAM1 was a cell overexpressing CEACAM1, SW620-CEACAM3 was a cell overexpressing CEACAM3, CHO-CEACAM6 was a cell overexpressing CEACAM6, CHO-CEACAM7 was a cell overexpressing CEACAM7, and CHO-CEACAM8 was a cell overexpressing CEACAM8. […]

Experiment [3] deals with T1, human CEACAM5 on tumor cells (LOVO, …). Kind of experiment: cell-based or functional assay.
For experiment [4], the target named is T3, CEACAM3 overexpressed on SW620 cells (UniProt P40198 35-252, limits assumed).
T3 construct: whole, on cells; also called SW620-CEACAM3
T3 sequence (looked up): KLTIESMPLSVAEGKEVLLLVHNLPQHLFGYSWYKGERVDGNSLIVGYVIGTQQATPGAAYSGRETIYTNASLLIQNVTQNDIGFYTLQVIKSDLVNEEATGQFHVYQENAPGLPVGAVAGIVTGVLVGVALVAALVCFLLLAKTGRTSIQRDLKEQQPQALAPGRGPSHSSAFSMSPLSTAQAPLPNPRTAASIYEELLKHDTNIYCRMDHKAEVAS
Kind of experiment: FACS on SW620-CEACAM3 cells. The protocol:
as §1, §2

Experiment [5] has as its target T4, CEACAM1 overexpressed on SW620 cells (UniProt P13688 35-526, limits assumed).
T4 construct: whole, on cells; also called SW620-CEACAM1
T4 sequence (looked up): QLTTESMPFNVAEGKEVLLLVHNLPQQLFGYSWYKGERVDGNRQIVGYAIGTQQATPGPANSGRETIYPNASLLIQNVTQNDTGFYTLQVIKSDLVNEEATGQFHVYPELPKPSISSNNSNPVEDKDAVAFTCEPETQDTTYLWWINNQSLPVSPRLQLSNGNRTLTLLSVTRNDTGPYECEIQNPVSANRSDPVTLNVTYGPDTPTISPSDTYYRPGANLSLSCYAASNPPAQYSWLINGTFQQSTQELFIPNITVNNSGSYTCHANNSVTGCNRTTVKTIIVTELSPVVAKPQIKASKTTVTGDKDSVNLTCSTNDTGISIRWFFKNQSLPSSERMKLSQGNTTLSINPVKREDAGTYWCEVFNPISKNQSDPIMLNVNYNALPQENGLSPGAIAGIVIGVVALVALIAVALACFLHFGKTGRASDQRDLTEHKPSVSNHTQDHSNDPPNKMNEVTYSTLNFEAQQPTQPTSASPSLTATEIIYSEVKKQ
Kind of experiment: FACS on SW620-CEACAM1 cells. The protocol: as §1, §2

Experiment [6] has as its target T5, CEACAM8 overexpressed on CHO cells (UniProt P31997 35-320, limits assumed).
T5 construct: whole, on cells; also called CHO-CEACAM8
T5 sequence (looked up): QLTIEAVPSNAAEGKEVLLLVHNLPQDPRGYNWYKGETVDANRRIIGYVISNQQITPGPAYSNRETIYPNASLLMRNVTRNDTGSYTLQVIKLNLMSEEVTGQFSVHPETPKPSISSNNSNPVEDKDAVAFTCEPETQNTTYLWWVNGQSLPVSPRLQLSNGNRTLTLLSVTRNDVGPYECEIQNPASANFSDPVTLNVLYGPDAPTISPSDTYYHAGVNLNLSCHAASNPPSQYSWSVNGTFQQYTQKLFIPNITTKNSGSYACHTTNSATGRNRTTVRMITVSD
Kind of experiment: FACS on CHO-CEACAM8 cells. The protocol:
as §1, §2

Experiment [7] concerns the target T1, human CEACAM5 on tumor cells (LOVO, …). Kind of experiment: FACS on LS174T cells. The protocol: LS174T cells (tumor cells with high expression of CEACAM5) were cultured in RPMI1640 medium containing 10% FBS. After digesting LS174T cells with TrypLE trypsin, the cells were centrifuged and resuspended in DPBS solution (FACS buffer, 4° C.) containing 2% BSA; then, the cells were added at 5×10⁵/100 μL/well to the U-shaped bottom 96-well plate, and a series of dilution solutions of antibody were added to the U-shaped bottom 96-well plate, mixture was incubated at 4° C. for 1 hour. After incubation, the mixture was centrifuged and the resulted supernatant was discarded; 100 μl of secondary antibody (anti-human IgG Fc-APC) was added to each well, and incubated at 4° C. for 1 hour. After incubation, the cells were washed once with FACS buffer, resuspended in 200 μl FACS buffer, and the fluorescence signal value was read in BD C6 plus.
The 47th amino acid (Cys) of the human-mouse chimeric antibody UM05-5L VH was mutated to Trp, and the mutated antibody was named UM05-5L C47W; the 47th amino acid (Trp) of the humanized antibody hUM05-3 VH was mutated to Cys, and the mutated antibody was named hUM05-3 W47C. As described in Example 10, the ability of the antibody binding to LS174T cells was tested.

The target of experiment [8] is T6, human CEACAM5 protein (human, UniProt P06731 35-685, limits assumed).
T6 construct: also called CD66e
T6 sequence (looked up): T1 sequence (looked up)
Kind of experiment: ELISA, plate coated with human CEACAM5 protein at 1 µg/mL. The protocol:
On the next day, it was first washed with 300 μL of PBST (Tween20: 0.5% o) for 3 times, then blocked with 100 μL/well of 5% BSA/PBS for 1 hour, and shaken at room temperature. Washing was performed 3 times with 300 μL of PBST. A series of dilution solutions of antibody samples were prepared with PBS, and added at 100 μL/well to the 96-well plate and shaken at room temperature for 1 hour. Washing was performed 3 times with 300 μL of PBST. A secondary antibody goat anti-human IgG HRP solution was prepared, added at 100 μL/well to the 96-well plate, and shaken at room temperature for 30 minutes. Washing was performed 4 times with 300 μL of PBST. 100 μL/well TMB was added to perform color development for 20 min. 100 μL/well of 0.6N H₂SO₄ was added to stop the color development, and OD450nm was detected.

Changes are numbered by the printed parent chain.

B1: human-mouse chimeric antibody UM05-5L (antibody, human IgG1, kappa, V domains shown)
VH: QVQLQQSDADLVKPGASVKISCKVSGYTFTDHTIHWMKQRPEQGLECIGYIYPRDGNTKYNEKFKGKATLTADRSSITAYMQLNSLTSEDSAVYFCARPIYDGYSFDYWGQGTTLTVSS
VL: QIVLTQSPAIMSASPGEKVTMTCRASSSVSYMHWYQQKSGTSPKRWIYDTSKLASGVPARFSGSGSGTSYSLTISSMAAEDAATYYCQQWTRNPPTFGAGTKLELKR
notes: expressed in HEK293
In the case of B1, the EC50 (as a rule, the concentration needed to bring the measured effect to its halfway point) in experiment [1] came to 3.17 µg/mL; in experiment [7], 0.81 µg/mL; in experiment [8] it was 0.105 µg/mL. The binding result in experiment [2], in experiment [4], in experiment [5] and in experiment [6] was “no binding (tested: 3 µg/mL)” throughout. Further, the “ADCC activity (luciferase in Jurkat/ADC effector cells, LOVO target cells), EC50” value in experiment [3] worked out at 0.85 µg/mL. The “Emax MFI (Average fluorescence intensity)” value (“Emax MFI” below) in experiment [7] amounted to 79700 MFI.

B2: UM05-5L C47W (antibody, human IgG1, kappa, V domains shown)
VH: B1 VH with C47W
VL: B1 VL
notes: also called mutated human-mouse chimeric antibody UM05-5L (VH Cys47 to Trp)
Take B2: in experiment [7], the response was half-maximal at 2.46 µg/mL (EC50) and the “Emax MFI” value is 55200 MFI.

B3: humanized antibody hUM05-3 (antibody, V domains shown)
VH: EVQLVQSGAEVKKPGATVKISCKVSGYTFTDHTMHWMQQAPGQGLEWIGLIYPRDGSTIYNEKFQGRATLTADRSTDTAYMELSSLRSEDTAVYFCARPIYDGYSFDYWGQGTLVTVSS
VL: QIVLTQSPATLSASPGERATLSCRASSSVSYMHWYQQKPGQAPKRWIYDTSNRATGVPARFSGSGSGTDYTLTISSMEPEDAAVYYCQQWTRNPPTFGQGTKLELK
notes: detected with anti-human IgG Fc-APC
On to B3, for which, in experiment [7], the EC50 came out at 0.53 µg/mL and the “Emax MFI” value amounted to 52900 MFI.

B4: hUM05-3 W47C (antibody, V domains shown)
VH: B3 VH with W47C
VL: B3 VL
notes: also called mutated humanized antibody hUM05-3 (VH Trp47 to Cys)
For the molecule B4, in experiment [7], it took 1.47 µg/mL to reach a half-maximal effect (EC50) and the “Emax MFI” value was 34400 MFI.
